The values that follow are results of earlier work, collected in PMC8100127.

Series [1] concerns the target T1, VEGF K321N;internal_change (UniProt P15692).
T1 sequence: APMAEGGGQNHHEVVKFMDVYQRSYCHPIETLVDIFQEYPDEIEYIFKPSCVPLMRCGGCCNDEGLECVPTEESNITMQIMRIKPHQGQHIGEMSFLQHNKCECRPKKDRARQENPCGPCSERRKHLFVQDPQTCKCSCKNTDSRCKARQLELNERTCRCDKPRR
The conditions noted are these: No purified-protein binding assay in this paper (Kd values cited). TAS on plasma EVs: 0.1 uM Cy5-aptamer, 1x PBS, 2 mM MgCl2, 25 C, 2 h.

Series [2] addresses CA 15-3 (MUC1) (UniProt P15941). The conditions noted are these: No purified-protein binding assay in this paper (Kd values cited). TAS on plasma EVs: 0.1 uM Cy5-aptamer, 1x PBS, 2 mM MgCl2, 25 C, 2 h.

Sequence of CA 15-3 (MUC1) (P15941 24-1097): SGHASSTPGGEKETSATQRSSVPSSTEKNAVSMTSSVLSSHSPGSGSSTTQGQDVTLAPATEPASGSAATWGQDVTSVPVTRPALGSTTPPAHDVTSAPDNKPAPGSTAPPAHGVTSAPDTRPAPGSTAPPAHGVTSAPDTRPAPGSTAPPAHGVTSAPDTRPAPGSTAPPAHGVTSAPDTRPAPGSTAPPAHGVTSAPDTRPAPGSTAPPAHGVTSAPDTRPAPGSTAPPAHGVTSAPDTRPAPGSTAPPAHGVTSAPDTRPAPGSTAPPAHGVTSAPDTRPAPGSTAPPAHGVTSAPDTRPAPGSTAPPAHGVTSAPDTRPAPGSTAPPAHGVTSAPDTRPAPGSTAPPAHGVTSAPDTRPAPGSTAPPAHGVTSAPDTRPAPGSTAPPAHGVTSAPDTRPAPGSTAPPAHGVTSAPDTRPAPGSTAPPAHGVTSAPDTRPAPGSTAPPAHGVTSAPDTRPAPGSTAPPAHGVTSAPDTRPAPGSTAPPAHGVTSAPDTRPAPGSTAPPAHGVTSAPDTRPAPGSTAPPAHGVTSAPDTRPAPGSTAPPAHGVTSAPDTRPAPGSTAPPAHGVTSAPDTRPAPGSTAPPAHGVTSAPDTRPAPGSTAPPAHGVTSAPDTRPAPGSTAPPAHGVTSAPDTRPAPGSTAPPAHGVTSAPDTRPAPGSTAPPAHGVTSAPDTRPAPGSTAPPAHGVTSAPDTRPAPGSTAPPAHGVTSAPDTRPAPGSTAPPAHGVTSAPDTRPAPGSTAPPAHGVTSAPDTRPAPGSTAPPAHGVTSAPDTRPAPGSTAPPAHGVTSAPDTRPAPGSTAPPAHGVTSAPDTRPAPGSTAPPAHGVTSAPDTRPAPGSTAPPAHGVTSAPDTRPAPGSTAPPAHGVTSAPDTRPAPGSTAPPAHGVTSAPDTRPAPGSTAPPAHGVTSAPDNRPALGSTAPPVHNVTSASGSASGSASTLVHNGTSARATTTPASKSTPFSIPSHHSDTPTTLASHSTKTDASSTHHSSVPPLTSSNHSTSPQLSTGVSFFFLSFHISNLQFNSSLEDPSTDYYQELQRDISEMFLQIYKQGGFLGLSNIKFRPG

As a reminder, the Kd is a measure of binding affinity in units of concentration. As for “TTCCCGTCTTCCAGACAAGAGTGCAGGG [VEGF aptamer]”, the Kd in series [1] was 400 nM.

“GCAGTTGATCCTTTGGATACCCTGG [CA 15-3 aptamer]”: the Kd in series [2] was 0.135 nM.
